US9474783B2, “HIP/PAP protein and derivatives thereof for use in treating cancer” (priority 2012, dated 2016)

B1: ALF-5755 (protein, listed as Homo sapiens)
chain: MEEPQRELPSARIRCPKGSKAYGSHCYALFLSPKSWTDADLACQKRPSGNLVSVLSGAEGSFVSSLVKSIGNSYSYVWIGLHDPTQGTEPNGEGWEWSSSDVMNYFAWERNPSTISSPGHCASLSRSTAFLRWKDYNCNVRLPYVCKFTD

Key:
[1] = tested on: MCF7 cells; test: In vitro mammary cancer cell line growth (cell density, optical density); assay type: cell-based, Human
Protocol: (§1) The MCF7 (Human breast adenocarcinoma) and PANC1 (Human pancreatic carcinoma, epithelial-like cell line) cell lines were obtained from LGC-Promochem ATCC.
(§2) Sub-confluent cultures (70-80%) were split using Trypsin/EDTA and collected in serum free culture medium. Cell concentration was determined using Trypan blue staining and a Mallasez counting chamber.
(§3) Briefly, 1,000 cells per well were seeded in 96 well-plates. Cells were maintained in DMEM medium complemented with 1% antibiotics (P/S), and cultured in a humidified atmosphere at 37° C. and 5% CO2.
(§4) Cells were maintained in culture for 1 to 3 days (1 plate for each day of analysis). For control of cell survival/growth and validation of the experiments, equivalent cultures were performed in the presence of Foetal calf serum (5%).
(§5) The effect of increasing concentrations of ALF-5755 ranging from 0 to 2000 ng/ml was investigated over time up to 72 hours. Results for the optimal concentration (2000 ng/mL) only are presented below.
(§6) For each time point (24, 48, and 72 hours), 60 minutes prior to cell proliferation measurement, each plate received 10 μL of cell proliferation reagent per well.
(§7) The absorbance of the samples was measured against a background control using a 96-well plate reader at 450 nm with a reference wavelength of 690 nm.
(§8) Raw data are expressed as optical density.
(§9) Two-way ANOVA were performed to study ALF-5755 concentration incidence on cell growth and cell growth over time for each condition of culture (+/−ALF-5755 and +/−doxorubicin). Post-hoc Bonferroni were applied to reveal effects of ALF-5755 concentration at each time point, if any.

[2] = tested on: PANC1 cells; test: In vitro pancreatic cancer cell line growth (cell density, optical density); assay type: cell-based, Human
Protocol: as §1, §2, §3, §4, §5, §6, §7, §8, §9

[3] = tested on: PyMT cells (primary mammary carcinoma); test: In vivo model of primary mammary cancer (tumor weight, survival)
Protocol: PyMT (Polyoma middle T) cell line was derived from a primary mammary carcinoma induced by PyMT oncogene activation in FBV mice. Therefore, all experiments were performed in FBV mice, the syngenic corresponding strain.
PyMT mice were sacrificed at 12/13 weeks when presenting a large tumoral mass. The tumour was dissected and cells were dissociated mechanically in DMEM/Glutamax medium and then filtrated. Dead cells were eliminated by centrifugation then viable cells were frozen in aliquots. For tumour implantation in FBV mice, appropriate number of aliquots cells was thawn.
At day 1 of the experiment, female mice received 1 million of PyMT cells, within the 8th mammal in the adipose tissue. Cells were injected as a solution in PBS (0.05 ml total pre-warmed at 37° C.).
Alzet pumps were implanted in the back of the mice, at the time of PyMT cell injection (experiment 1) or after tumor implantation, when doxorubicin treatment started (experiment 2). The pumps continuously delivered either 43.2 μg of ALF-5755 or vehicle per day for a period of 28 days.
Animals started to receive doxorubicin at the time when tumor was detected (15 days after PyMT cells injection for both, ALF-5755 and Vehicle groups) by intra-tumor injection. Animals receive during four weeks, a weekly dose of 1 mg/kg that was known to induce tumor cell-death.
At the end of doxorubicin treatment (6 weeks after the beginning of the procedure), animals were sacrificed.
The weight of the tumors was compared between the two groups by mean of non-parametric one tailed Mann whitney test. Survival was compared by mean of one-tailed exact Fischer test.

[4] = tested on: DHDK12 cells (liver metastases of colorectal cancer); test: In vivo model of liver metastases of colorectal cancer (tumor area after partial hepatectomy); set-up: species or system BDIX rat; conditions: 0.5 mg/kg single injection; for ratio of tumor liver area to total liver area: 14 days after treatment
Protocol: DHDK12 cell line was derived from liver metastatic cells developed by BDIX rats after 1,2-Dimethylhydrazine) intoxication (chemically-induced cancer). Therefore, all experiments were performed in BDIX rat, the syngenic corresponding strain.
Cells were expanded in vitro in a medium composed of 50% DMEM and 50% F12 (Invitrogen Gibco, Pailsey, GB) complemented with foetal calf serum (10%) and a combination of antibiotics (1% penicillin/streptomycin). Absence of mycoplasm contamination was controlled.
At day 1 of the experiment, rats were anesthetized with isofluran gas. After laparotomy they received 20 millions of DHDK12 cells.
At day seven after the injection of cancerous cells, when the tumor was already implanted, two types of hepatectomies were performed: either 30% or 70% of the liver was resected.
The control group was composed of animals receiving either the equivalent volume of vehicle or no injection.
Fourteen days after hepatectomy and treatment, animals were sacrificed. Serial sections of complete liver were performed for each animal (millimetric sections, the number of sections depending on the liver size and morphology). The tumor expansion was assessed by quantifying in square pixels (pixel^2) the area of each cancer cells nodule. The complete area of each section was also recorded and a ratio of the nodule/total area was calculated. Analyses were performed with Adobe Photoshop CS3 software.
Depending on the experiment, one-tailed t-test or two-tailed Mann-Whitney tests were performed to quantify the effect of ALF-5755 on nodule expansion. Area of nodules was expressed as a percentage of total liver area.

Molecule | EC50 ([1]; Homo sapiens, MCF7 cells at 24H) | reduction of the growth of MCF7 cancerous cells ([1]; doxorubicin 75 μM, 24 hours post-plating, maintained at 72 hours) | EC50 ([2]; Homo sapiens, PANC-1, PANC1 cells at 72H) | reduction of the cell growth ([2]; doxorubicin 2.5 μM, effective at 48 hours post-plating, maintained at 72 hours) | maximum additional reduction in cell density in combination to doxorubicin ([1]; ALF-5755 2000 ng/mL + doxorubicin 75 μM versus doxorubicin alone, 72 hours) | influence on the doxorubicin effect on cell density ([1]; ALF-5755 at any of the tested concentrations (0 to 2000 ng/ml) with doxorubicin 75 μM) | additional decrease of cell density in combination to doxorubicin ([2]; ALF-5755 2000 ng/mL + doxorubicin 2.5 μM versus doxorubicin alone, 24 hours post-plating) | deaths during the experiment ([3]; exp 1, ALF-5755 infusion with doxorubicin, n=3) | tumor weight at day 45 after implantation ([3]; exp 1, infusion 43.2 μg per day for 28 days from implantation, with weekly intra-tumor doxorubicin, control 1.1±0.2 g, P=0.059) | deaths during the course of the experiment ([3]; exp 2, doxorubicin treated animals (1 mg/kg weekly intra-tumor for 4 weeks), same as group without doxorubicin) | deaths during the experiment, in total ([3]; exp 2, groups with and without doxorubicin pooled, n=14, placebo 6 of 14 died, P=0.008) | deaths during the course of the experiment ([3]; exp 2, infusion 43.2 μg per day for 28 days from tumor detection, group without doxorubicin, placebo 3 of 7 died) | ratio of tumor liver area to total liver area ([4]; after 30% partial hepatectomy, control ratio 0.14) | decrease of tumor/total liver area ratio versus controls ([4]; after 30% partial hepatectomy, versus non-injected controls, p=0.022) | ratio of tumor liver area to total liver area ([4]; after 70% partial hepatectomy, control ratio 0.29) | decrease of tumor/total liver area ratio versus controls ([4]; after 70% partial hepatectomy, versus vehicle, p=0.0026)
COc1cccc2c1C(=O)c1c(O)c3c(c(O)c1C2=O)C[C@@](O)(C(=O)CO)C[C@@H]3O[C@H]1C[C@H](N)[C@H](O)[C@H](C)O1 [doxorubicin, reference compound] | 75 µM | about 50% | 2.5 µM | about 50% |  |  |  |  |  |  |  |  |  |  |  | 
B1 |  |  |  |  | 33% | did not compromise the doxorubicin effect | up to 22% | no death observed | 0.63 ± 0.12 g | exact same result | none | no death was observed | 0.05 | about 60% | 0.15 | about 50%
